Experiment [1] deals with T1, recombinant human interleukin-6 (human, UniProt P05231 30-212).
T1 construct: Recombinant human IL-6 came from several suppliers; also called IL-6; rhIL-6
The experiment is described as follows: cell-based or functional assay.

Experiment [2] has as its target T1, recombinant human interleukin-6. The experiment is described as follows: Luminex-based assay of IL-6 binding to IL-6 receptor.
The target is the same in experiment [3]. The experiment is described as follows: solid-phase ELISA on coated rIL-6 and solid-phase RIA with 125I-rIL-6, hybridoma supernatant. On the technique in general: In an ELISA, binding on a coated surface is turned into a signal by an enzyme label.

T1 sequence (P05231 30-212 limits assumed): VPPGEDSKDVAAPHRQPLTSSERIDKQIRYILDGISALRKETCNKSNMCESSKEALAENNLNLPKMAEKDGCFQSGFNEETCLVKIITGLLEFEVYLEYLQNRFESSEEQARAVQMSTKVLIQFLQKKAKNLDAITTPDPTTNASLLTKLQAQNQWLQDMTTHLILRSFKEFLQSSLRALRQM

B1: mouse anti-IL-6 monoclonal antibody CLB-8 (antibody, V domains shown)
VH: EVQLVESGGKLLKPGGSLKLSCAASGFTFSSFAMSWFRQSPEKRLEWVAEISSGGSYTYYPDTVTGRFTISRDNAKNTLYLEMSSLRSEDTAMYYCARGLWGYYALDYWGQGTSVTVSS
VL: QIVLIQSPAIMSASPGEKVTMTCSASSSVSYMYWYQQKPGSSPRLLIYDTSNLASGVPVRFSGSGSGTSYSLTISRMEAEDAATYYCQQWSGYPYTFGGGTKLEIK
notes: also called CLB-IL6-8; CLB.IL-6/8
As for B1, in experiment [1], the IL−6依存性7TD1細胞増殖バイオアッセイ is 100% and the IL−6誘発性細胞増殖の阻害 (7TD1 cells, ATP luminescence), EC 50 turned out to be 7.2 ng/mL. Further, the percent inhibition of IL-6 binding to IL-6 receptor in experiment [2] turned out to be 100%. The binding result in experiment [3] is reported as “binds”.

The values above are taken from patent publication JP2014195458A (dated 2014).
